From the supplement of paper PMC7877785
± gives the uncertainty stated by the source.

Assay: self-splicing fitness, log relative to wild type (ln ratio); higher = more splicing; Tetrahymena group I intron in knt gene, E. coli kanamycin selection, DiMSum; sequences stand for … in CUCUCU…GGAGGGAAAAGUUAUCAGGCAUGCACCUGGUAGCUAGUCUUUAAACCAAUAGAUUGCAUCGGUUUAAAAGGCAAGACCGUCAAAUUGCGGGAAAGGGGUCAACAGCCGUUCAGUACCAAGUCUCAGGGGAAACUUUGAGAUGGCCUUGCAAAGGGUAUGGUAAUAAGCUGACGGACAUGGUCCUAACCACGCAGCCAAGUCCUAAGUCAACAGAUCUUCUGUUGAUAUGGAUGCAGUUCACAGACUAAAUGUCGGUCGGGGAAGAUGUAUUCUUCUCAUAAGAUAUAGUCGGACCUCUCCUUAAUGGGAGCUAGCGGAUGAAGUGAUGCAACACUGGAGCCGCUGGGAACUAAUUUGUAUGCGAAAGUAUAUUGAUUAGUUUUGGAGUACUCGUGGUCG
Outline: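 Library with all eight P1ex-region intron nucleotides randomised, intron inside the knt kanamycin-resistance gene on pET-22b(+), in E. coli BL21(DE3). Cells grew overnight at 37°C or 30°C on LB agar with or without 25 μg/mL kanamycin (plus 100 μg/mL carbenicillin, 50 μM IPTG, 0.2% rhamnose), in six replicate transformations. Pooled colonies were amplicon-sequenced on Illumina HiSeq 2500. DiMSum fitness is the error-weighted combination of wild-type-normalised replicate fold changes, kanamycin versus none.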

Sequence	self-splicing fitness (ln) (30 °C)	self-splicing fitness (ln) (37 °C)
GGGUAGCAAUAUUACGUGGA	-3.45 ± 0.2	-2.02 ± 0.097
GGGUAGCAAUAUUACGUUCA	0.0201 ± 0.096	-0.0805 ± 0.12
GGUAAGCAAUAUUACGACGG	-3.74 ± 0.33	-2.84 ± 0.34
GGUAAGCAAUAUUACGAGGG	-2.38 ± 0.14	-2.98 ± 0.24
GGUAAGCAAUAUUACGAUAG	-3.14 ± 0.2	-2.14 ± 0.24
GGUAAGCAAUAUUACGCAAG	-3.39 ± 0.26	-2.03 ± 0.22
GGUAAGCAAUAUUACGCACU		-2.23 ± 0.2
GGUAAGCAAUAUUACGCCCC	-3.4 ± 0.45	
GGUAAGCAAUAUUACGCCCU	-1.86 ± 0.28	-1.35 ± 0.28
GGUAAGCAAUAUUACGCCGC	-3.46 ± 0.43	-1.41 ± 0.27
GGUAAGCAAUAUUACGCUAA	-2.29 ± 0.18	0.0407 ± 0.15
GGUAAGCAAUAUUACGCUAU	-2.53 ± 0.17	-2.05 ± 0.27
GGUAAGCAAUAUUACGGAGA	-3.47 ± 0.23	-2.8 ± 0.22
GGUAAGCAAUAUUACGGAUU	-0.823 ± 0.094	-0.646 ± 0.11
GGUAAGCAAUAUUACGGGAU	-2.82 ± 0.27	-0.913 ± 0.21
GGUAAGCAAUAUUACGGGCG	-0.129 ± 0.097	-0.279 ± 0.13
GGUAAGCAAUAUUACGUACU	-1.82 ± 0.32	
GGUAAGCAAUAUUACGUCCU	-1.17 ± 0.2	-0.999 ± 0.23
GGUCAGCAAUAUUACGAAAC	-0.257 ± 0.22	-0.396 ± 0.22
GGUCAGCAAUAUUACGAUUG	-0.673 ± 0.073	0.0247 ± 0.097
GGUCAGCAAUAUUACGCGAA	-0.889 ± 0.069	0.00884 ± 0.088
GGUCAGCAAUAUUACGCGUC	-1.46 ± 0.17	0.149 ± 0.19
GGUCAGCAAUAUUACGCGUG	-0.989 ± 0.077	-0.272 ± 0.083
GGUCAGCAAUAUUACGGAAC	-1.04 ± 0.1	-0.383 ± 0.14
GGUCAGCAAUAUUACGGACU	-1.49 ± 0.44	

Sequence	self-splicing fitness (ln) (30 °C)	self-splicing fitness (ln) (37 °C)
GGUCAGCAAUAUUACGGAUU	-0.77 ± 0.079	-0.499 ± 0.1
GGUCAGCAAUAUUACGGCCG	-1.83 ± 0.33	-1.64 ± 0.33
GGUCAGCAAUAUUACGGCGA	0.307 ± 0.14	0.838 ± 0.14
GGUCAGCAAUAUUACGGGUU	-1.25 ± 0.083	-0.194 ± 0.089
GGUCAGCAAUAUUACGGUCA	-0.669 ± 0.13	0.518 ± 0.13
GGUCAGCAAUAUUACGGUGU	-1.44 ± 0.15	0.00529 ± 0.14
GGUCAGCAAUAUUACGUCAA	-0.511 ± 0.071	0.0808 ± 0.082
GGUCAGCAAUAUUACGUGAG	0.0154 ± 0.061	0.241 ± 0.085
GGUCAGCAAUAUUACGUGGG	-2.15 ± 0.089	-2.38 ± 0.15
GGUCAGCAAUAUUACGUUCU	-0.13 ± 0.1	0.22 ± 0.11
GGUGAGCAAUAUUACGACAC	-0.5 ± 0.18	0.114 ± 0.22
GGUGAGCAAUAUUACGAGAG	-4.03 ± 0.27	-2.38 ± 0.18
GGUGAGCAAUAUUACGAGCG	-0.194 ± 0.11	0.303 ± 0.14
GGUGAGCAAUAUUACGAUGA	-3.32 ± 0.29	-2.29 ± 0.21
GGUGAGCAAUAUUACGAUGU	-2.19 ± 0.15	-1.69 ± 0.23
GGUGAGCAAUAUUACGAUUG	-3.77 ± 0.39	-1.79 ± 0.4
GGUGAGCAAUAUUACGCAGG	-3.7 ± 0.34	-2.07 ± 0.41
GGUGAGCAAUAUUACGCGAG		-1.97 ± 0.18
GGUGAGCAAUAUUACGCGCG	-0.933 ± 0.087	-0.502 ± 0.12
GGUGAGCAAUAUUACGCGGA	-2.35 ± 0.19	-1.57 ± 0.15
GGUGAGCAAUAUUACGCUAU	-1.77 ± 0.32	-2.94 ± 0.4
GGUGAGCAAUAUUACGGAGG	-1.6 ± 0.27	
GGUGAGCAAUAUUACGGAUC	-0.748 ± 0.076	0.263 ± 0.11
GGUGAGCAAUAUUACGGAUG	-3.73 ± 0.22	-2.62 ± 0.22
GGUGAGCAAUAUUACGGCGU	-1.29 ± 0.14	-0.494 ± 0.17

Sequence	self-splicing fitness (ln) (30 °C)	self-splicing fitness (ln) (37 °C)
GGUGAGCAAUAUUACGGGAC	-3.63 ± 0.29	-1.85 ± 0.19
GGUGAGCAAUAUUACGGGGA		-2.42 ± 0.28
GGUGAGCAAUAUUACGGUCG	-1.29 ± 0.077	-0.612 ± 0.1
GGUGAGCAAUAUUACGGUUU	-2.12 ± 0.13	-1.25 ± 0.18
GGUGAGCAAUAUUACGUGGU	-3.51 ± 0.47	-2.36 ± 0.24
GGUGAGCAAUAUUACGUUGU	-4.18 ± 0.31	-2.04 ± 0.25
GGUUAGCAAUAUUACGAAAA	-2.05 ± 0.41	0.949 ± 0.28
GGUUAGCAAUAUUACGACAG	-1.69 ± 0.2	-0.85 ± 0.23
GGUUAGCAAUAUUACGACGG	-2.32 ± 0.17	-1.33 ± 0.22
GGUUAGCAAUAUUACGACUU	-0.187 ± 0.12	1.17 ± 0.16
GGUUAGCAAUAUUACGAGAU		-1.66 ± 0.33
GGUUAGCAAUAUUACGAUGC	-0.237 ± 0.13	-0.251 ± 0.16
GGUUAGCAAUAUUACGCCUU	-1.48 ± 0.11	-0.406 ± 0.14
GGUUAGCAAUAUUACGCGGC	-2.62 ± 0.29	
GGUUAGCAAUAUUACGCGUA	-0.642 ± 0.091	-0.174 ± 0.083
GGUUAGCAAUAUUACGCUGU	-2.1 ± 0.15	-0.41 ± 0.14
GGUUAGCAAUAUUACGGCAU	-0.0374 ± 0.082	-0.0754 ± 0.096
GGUUAGCAAUAUUACGGGGU	-3.61 ± 0.4	-0.0656 ± 0.17
GGUUAGCAAUAUUACGGUAA	-1.02 ± 0.15	-0.716 ± 0.14
GGUUAGCAAUAUUACGGUCC	-1.77 ± 0.49	
GGUUAGCAAUAUUACGUACU	-1.22 ± 0.24	-1.27 ± 0.32
GGUUAGCAAUAUUACGUCGC	-1.25 ± 0.24	-0.982 ± 0.26
GGUUAGCAAUAUUACGUCUA	-0.569 ± 0.12	-0.565 ± 0.093
GUAAAGCAAUAUUACGACCC	-1.28 ± 0.32	-0.886 ± 0.41
GUAAAGCAAUAUUACGAGAC	-2.46 ± 0.22	-1.08 ± 0.29

Sequence	self-splicing fitness (ln) (30 °C)	self-splicing fitness (ln) (37 °C)
GUAAAGCAAUAUUACGAGAU	-2.12 ± 0.12	-1.99 ± 0.15
GUAAAGCAAUAUUACGAGCU	-1.4 ± 0.13	-0.306 ± 0.18
GUAAAGCAAUAUUACGCAGC	-2.42 ± 0.22	-1.25 ± 0.2
GUAAAGCAAUAUUACGCAUG	-1.15 ± 0.077	-0.761 ± 0.1
GUAAAGCAAUAUUACGCCCA	0.335 ± 0.062	0.419 ± 0.085
GUAAAGCAAUAUUACGCCCC	-0.801 ± 0.089	-0.0225 ± 0.12
GUAAAGCAAUAUUACGCCCG	0.162 ± 0.18	-0.247 ± 0.19
GUAAAGCAAUAUUACGCGAA	-0.868 ± 0.08	-1.25 ± 0.1
GUAAAGCAAUAUUACGCGGG	-1.74 ± 0.12	-2.08 ± 0.19
GUAAAGCAAUAUUACGCUGC	-2.97 ± 0.24	-1.97 ± 0.28
GUAAAGCAAUAUUACGGAUC	-0.198 ± 0.12	0.205 ± 0.15
GUAAAGCAAUAUUACGGCGG	-1.39 ± 0.1	-1.76 ± 0.16
GUAAAGCAAUAUUACGGGAA	-2.36 ± 0.11	-0.287 ± 0.12
GUAAAGCAAUAUUACGGGGA	-2.91 ± 0.19	-2.4 ± 0.21
GUAAAGCAAUAUUACGGGGC	-3.07 ± 0.23	-2.29 ± 0.15
GUAAAGCAAUAUUACGGUCU	-0.245 ± 0.071	0.0323 ± 0.092
GUAAAGCAAUAUUACGGUGA	-0.896 ± 0.084	-0.575 ± 0.1
GUAAAGCAAUAUUACGGUUU	-0.83 ± 0.055	0.0852 ± 0.077
GUAAAGCAAUAUUACGUACA	-0.0825 ± 0.078	0.111 ± 0.09
GUAAAGCAAUAUUACGUCGA	-0.947 ± 0.088	-0.407 ± 0.1
GUAAAGCAAUAUUACGUGAA	-1.96 ± 0.1	-1.39 ± 0.12
GUAAAGCAAUAUUACGUGAU	-2.02 ± 0.085	-1.52 ± 0.12
GUAAAGCAAUAUUACGUUAA	-2 ± 0.093	-1.69 ± 0.14
